In US5847088A, “Antibodies specific for platelet-activating factor acetylhydrolase” (ICOS Corporation, priority 1995, dated 1998):

Assays:
[1] = test system: PAF-induced foot edema; assay: Rat foot edema model, PAF-induced; assay type: in vivo
Procedure: Six to eight-week-old female Long Evans rats (Charles River, Wilmington, Mass.), weighing 180-200 grams, were used for all experiments. Prior to experimental manipulations, animals were anesthetized with a mixture of the anesthetics Ketaset (Fort Dodge Laboratories, Fort Dodge, Iowa), Rompun (Miles, Shawnee Mission, Kans.), and Ace Promazine (Aveco, Fort Dodge, Iowa) administered subcutaneously at approximately 2.5 mg Ketaset, 1.6 mg Rompun, 0.2 mg Ace Promazine per animal per dose. Edema was induced in the foot by administration of either PAF or zymosan as follows. PAF (Sigma #P-1402) was freshly prepared for each experiment from a 19.1 mM stock solution stored in chloroform/methanol (9:1) at -20° C. Required volumes were dried down under N2, diluted 1:1000 in a buffer containing 150 mM NaCl, 10 mM Tris pH 7.5, and 0.25% BSA, and sonicated for five minutes. Animals received 50 μl PAF (final dose of 0.96 nmoles) subcutaneously between the hind foot pads, and edema was assessed after 1 hour and again after 2 hours in some experiments. Zymosan A (Sigma #A-8800) was freshly prepared for each experiment as a suspension of 10 mg/ml in PBS. Animals received 50 μl of zymosan (final dose of 500 μg) subcutaneously between the hind foot pads and edema was assessed after 2 hours.
Edema was quantitated by measuring the foot volume immediately prior to administration of PAF or zymosan and at indicated time point post-challenge with PAF or zymosan. Edema is expressed as the increase in foot volume in milliliters. Volume displacement measurements were made on anesthetized animals using a plethysmometer (UGO Basile, model #7150) which measures the displaced water volume of the immersed foot. […] Repeated measurements of the same foot using this technique indicate the precision to be within 5%.
PAF-AH was injected locally between the foot pads, or systematically by IV injection in the tail vein. For local administration rats received 100 μl PAF-AH (4000-6000 U/ml) delivered subcutaneously between the right hind foot pads. Left feet served as controls by administration of 100 μl carrier (buffered salt solution). For systemic administration of PAF-AH, rats received the indicated units of PAF-AH in 300 μl of carrier administered IV in the tail vein. Controls received the appropriate volume of carrier IV in the tail vein.

[2] = assay type: biochemical
Excerpt: The most remarkable property of the PAF acetylhydrolase is its marked specificity for substrates with a short residue at the sn-2 position of the substrate. This strict specificity distinguishes PAF acetylhydrolase from other forms of PLA2. […] Native plasma PAF-AH has several other properties that distinguish it from other phospholipases including calcium-independence and resistance to compounds that modify sulfhydryl groups or disrupt disulfides.

[3] = Pharmacokinetics of PAF-AH in rat circulation (double mAb capture ELISA); assay type: in vivo; settings: 2000 U IV, mean ± SEM
Procedure: Four rats received 2000 U of PAF-AH by IV injection in a 300 μl volume. Plasma was collected at various time points and stored at 4° C. and plasma concentrations of PAF-AH were determined by ELISA using a double mAb capture assay. In brief, monoclonal antibody 90G11D (Example 13) was diluted in 50 mM carbonate buffer pH 9.6 at 100 ng/ml and immobilized on Immulon 4 ELISA plates overnight at 4° C. After extensive washing with PBS containing 0.05% Tween 20, the plates were blocked for 1 hour at room temperature with 0.5% fish skin gelatin (Sigma) diluted in PBS. Serum samples diluted in PBS with 15 mM CHAPS were added in duplicate to the washed ELISA plate and incubated for 1 hour at room temperature. After washing, a biotin conjugate of monoclonal antibody 90F2D (Example 13) was added to the wells at a concentration of 5 μg/ml diluted in PBS and incubated for 1 hour at room temperature. After washing, 50 μl of a 1:1000 dilution of ExtraAvidin (Sigma) was added to the wells and incubated for 1 hour at room temperature. After washing, wells were developed using OPD as a substrate and quantitated. Enzyme activity was then calculated from a standard curve. […]

[4] = Plasma PAF-AH activity in rats of the NEC experiments; assay type: in vivo, rat
Procedure: The plasma PAF-AH activities were also determined in the rats utilized in the experiment described above. PAF-AH activity was determined as follows. Prior to the tail vein injection, blood samples were obtained. Subsequently blood samples were obtained from the vena cava just prior to the injection of PAF and at the time of sacrifice. Approximately 50 μl of blood was collected in heparinized capillaries. The plasma was obtained following centrifugation (980×g for 5 minutes). The enzyme was assayed as previously described by Yasuda and Johnston, Endocrinology, 130:708-716 (1992).
In order to determine if the protection against NEC in rats was dose dependent, animals were treated with increasing doses of PAF-AH 15 minutes prior to PAF administration. Initially, PAF-AH, ranging from 25.5 to 25,500 units were administered into the tail vein of rats. PAF (0.4 μg in 0.2 ml of BSA-saline) was subsequently injected into the abdominal aorta 15 minutes after the administration of PAF-AH. The small intestine was removed and examined for NEC development 2 hours after PAF administration. Plasma PAF-AH activity was determined prior to the exogenous administration of the enzyme, and 15 minutes and 21/4 hours after PAF-AH administration. The results are the mean of 2-5 animals in each group.

[5] = 25,500 units IV, 21/4 hours after injection

B1: PAF-AH: Recombinant human plasma platelet-activating factor acetylhydrolase (beginning at Ile42 of SEQ ID NO:8) expressed in E. coli (protein, UniProt Q13093 22-441, looked up)
Platelet-activating factor …: FDWQYINPVAHMKSSAWVNKIQVLMAAASFGQTKIPRGNGPYSVGCTDLMFDHTNKGTFLRLYYPSQDNDRLDTLWIPNKEYFWGLSKFLGTHWLMGNILRLLFGSMTTPANWNSPLRPGEKYPLVVFSHGLGAFRTLYSAIGIDLASHGFIVAAVEHRDRSASATYYFKDQSAAEIGDKSWLYLRTLKQEEETHIRNEQVRQRAKECSQALSLILDIDHGKPVKNALDLKFDMEQLKDSIDREKIAVIGHSFGGATVIQTLSEDQRFRCGIALDAWMFPLGDEVYSRIPQPLFFINSEYFQYPANIIKMKKCYSPDKERKMITIRGSVHQNFADFTFATGKIIGHMLKLKGDIDSNVAIDLSNKASLAFLQKHLGLHKDFDQWDCLIEGDDENLIPGTNINTTNQHIMLQNSSGIEKYN
mean increase in volume (foot edema) ([1]; 2000 U IV 15 minutes before PAF, 1 hour, ± SEM (FIG. 6)): 0.08 ± 0.02 mL
mean volume increase (foot edema) ([1]; 2000 U IV 15 minutes prior to PAF, two hours after challenge, ± SEM): 0.10 mL
ID50 ([1]; IV 15 minutes prior to PAF, edema after 1 hour): 40-80 U per rat
IV doses found to dramatically reduce PAF mediated inflammation ([1]; IV dosing studies): 160-2000 U/rat
PAF-induced edema, PAF-AH versus PAF antagonists ([1]; PAF-AH 2000 U IV, CV3988 or Alprazolam 2 mg IP (FIG. 10)): reduction in PAF-induced edema beyond that afforded by the established PAF antagonists
plasma concentration predicted to block PAF-elicited edema ([1]; calculated from plasma volume of 180-200 gram rats): 25-40 U/ml
increase in foot volume ([1]; local subcutaneous 100 μl PAF-AH (4000-6000 U/ml), immediate PAF challenge, 1 hour post-challenge, mean ± SEM): 0.08 mL
duration of protection from PAF induced edema ([1]; single 2000 U IV dose): at least 24 hours
degradation of glutaroylPC (oxidized phospholipid) [2]: rapidly degraded
plasma enzyme level at one hour [3]: 374 U/ml
plasma PAF-AH activity after 15 minutes ([4]; 2040 units IV): 363 units per ml of plasma
increase of plasma PAF-AH activity over basal levels ([4]; 2040 units IV, 15 minutes): five-fold increase over basal levels
plasma PAF-AH activity at time of sacrifice, groups 2 and 4 ([4]; 25,500 units IV, 21/4 hours after PAF-AH injection): 1855±257 units
plasma PAF-AH activity at time of sacrifice, Group 2 [4, 5]: 1771±308
plasma PAF-AH activity at time of sacrifice, Group 4 [4, 5]: 1939±478
plasma PAF-AH activity after 15 minutes, group 2 ([4]; 25,500 units IV, BSA-saline group): 2249±341 units (1 unit equals 1 nmoles×min^-1 ×ml^-1 plasma)
plasma PAF-AH activity after 15 minutes, group 4 ([4]; 25,500 units IV, PAF group): 2494±623 units (1 unit equals 1 nmoles×min^-1 ×ml^-1 plasma)
resultant plasma enzyme activity ([4]; less than 1,020 total units administered): ≤ 160
